Legend:
[1] = molecular target: T1, DcR3 binding to membrane LIGHT (EL4-LIGHT cells) (Homo sapiens, UniProt O43557); assay: Competition binding of anti-membrane LIGHT antibodies with DcR3-His on EL4-LIGHT cells; settings: mAb at up to 100 nM
T1 construct: expressed in transfected cells; host or cells: EL4 mouse lymphoma cells, stably transduced
Procedure: DcR3 (TNFRSF6B) is a decoy receptor that competes with receptors for ligand binding. DcR3 can bind and neutralise LIGHT with high affinity and TL1A and FasL with lower affinity (Zhan C et al. Structure. 2011, 19:162-71 “Decoy strategies: the structure of TL1A:DcR3 complex”). Stably transduced LIGHT-expressing EL4 cells (mouse lymphoma cell line; EL4-LIGHT) were used for the flow cytometry-based competition-binding analysis.
EL4-LIGHT cells (0.25×10^6) were preincubated with anti-membrane LIGHT mAbs (0-300 nM) for 15 min at 4° C. followed by incubation with DcR3-His tagged (1 nM, Creative BioMart; ref:TNFRSF6B-552H, lot:962512) for 30 min at 4° C. The samples were then incubated with mouse anti-histag antibody (diluted 1:500, Biolegend, cat. no. 652502) for 30 minutes at 4° C., followed by incubation with anti-mouse APC (dil 1:500, BDBiosciences, cat. no. 550826) for 30 minutes at 4° C. The tubes were washed three times after each of the detection antibody stages and flow cytometry analysis was performed. Specific mean fluorescence intensity (MFI) obtained from the binding of DcR3-His to LIGHT on EL4 cells were used to determine the levels of competition binding.

[2] = molecular target: T2, soluble LIGHT amino acids 64-240 (Homo sapiens, UniProt O43557); assay: BIAcore (SPR) binding to soluble LIGHT 64-240
T2 construct: 64-240 LIGHT (Abcam, ab82123); purchased Abcam ab82123
T2 sequence (O43557 64-240): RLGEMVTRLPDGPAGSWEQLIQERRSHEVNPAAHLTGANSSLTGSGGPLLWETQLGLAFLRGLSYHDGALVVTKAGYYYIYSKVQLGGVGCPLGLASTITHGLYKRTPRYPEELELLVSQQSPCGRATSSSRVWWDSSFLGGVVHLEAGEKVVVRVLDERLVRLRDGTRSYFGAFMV
Procedure: (§1) Real-time binding interactions between captured antibody (chimeric anti-membrane LIGHT monoclonal antibody) captured on a biosensor matrix via goat anti-human Fc IgG and recombinant soluble LIGHT were measured by surface plasmon resonance (SPR) using the BIAcore system (GE Healthcare) according to manufacturer's instructions and standard procedures. Briefly, soluble LIGHT was diluted in HBS running buffer (GE Healthcare) and aliquots were injected through the immobilized protein matrices at a flow rate of […]. BIAevaluation software was used to calculate association rate (ka), dissociation rate (kd) and affinity (KD).
(§2) The specificity of two lead anti-membrane LIGHT mAbs to soluble LIGHT was determined by BIAcore analysis and compared to the KD calculated from the EC50 values in Table 7 (results in Table 9). In brief, mAbs 3D12, 3B04 were compared to a mAb that binds both soluble and membrane LIGHT, F19, (F19 IgG4 mAb from EP2292663). An irrelevant anti-HEL mAb, 2A11, was used as a negative control. The mAbs were captured on an anti-human Fc mAb coated chip and soluble LIGHT was passed over the surface and the kinetic parameters were calculated using BIAcore 3000 software. The soluble LIGHT preparations used were amino acids 74-240 LIGHT (R&D Systems, 664-LI-025) and 64-240 LIGHT (Abcam, ab82123).

[3] = molecular target: T3, soluble LIGHT amino acids 74-240 (Homo sapiens, UniProt O43557, K214E); assay: BIAcore (SPR) binding to soluble LIGHT 74-240
T3 construct: amino acids 74-240 LIGHT (R&D Systems, 664-LI-025); purchased R&D Systems 664-LI-025
T3 sequence (O43557 74-240 K214E): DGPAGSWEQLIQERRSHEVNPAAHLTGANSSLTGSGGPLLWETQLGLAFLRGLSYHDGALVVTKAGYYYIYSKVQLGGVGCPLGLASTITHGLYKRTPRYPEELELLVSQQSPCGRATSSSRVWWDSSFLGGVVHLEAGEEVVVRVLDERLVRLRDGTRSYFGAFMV
Procedure: as §1, §2

T1 sequence (O43557 whole entry): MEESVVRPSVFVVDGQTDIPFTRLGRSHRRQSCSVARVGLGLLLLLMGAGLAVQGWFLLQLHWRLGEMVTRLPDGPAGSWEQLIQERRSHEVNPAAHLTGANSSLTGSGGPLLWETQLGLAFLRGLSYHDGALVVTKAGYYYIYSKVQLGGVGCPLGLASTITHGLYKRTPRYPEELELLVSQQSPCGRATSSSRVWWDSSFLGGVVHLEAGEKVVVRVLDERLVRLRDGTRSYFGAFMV

| Molecule | Inhibition of DcR3 binding to membrane LIGHT [1] | 64-240 LIGHT Ka [2] [M⁻¹ s⁻¹] | 64-240 LIGHT Kd [2] [s⁻¹] | 74-240 LIGHT Ka [3] [M⁻¹ s⁻¹] | 74-240 LIGHT Kd [3] [s⁻¹] |
| --- | --- | --- | --- | --- | --- |
| 3B04: parental mouse anti-membrane LIGHT antibody, VL SEQ ID NO 1, VH SEQ ID NO 5; tested as chimeric human IgG4 mAb (antibody, listed as Homo sapiens, V domains shown) VH: QVQLQQPGAELVRPGASVTLSCKASGYTFTDYEMHWVKQTPVHGLEWIGEIDPETGDTAYSQKFKGKATLTADKSSSTAYMEFRSLTSEDSAVYYCSRETDYFFDYWGQGTTLTVSS VL: DIQMTQTPASLSASVGETVTITCGASENIYGALNWYQRKQGKSPQLLIYGATNLADGMSSRFSGSGSGRQYSLKISSLHPDDFATYYCQNVLTTPWTFGGGTKLEIKR | only partially inhibit | 251000 | 0.00345 | 222000 | 0.00348 |
| 3D12: parental mouse anti-membrane LIGHT antibody, VL SEQ ID NO 41, VH SEQ ID NO 45; tested as chimeric human IgG4 mAb (antibody, listed as Homo sapiens, V domains shown) VH: QVQLQQPGAELVRPGASVTLSCKASDYTFTDSEIHWVKQTPVHGLEWIGEIDPETGGTAYNQKFKGKATLTADKSSSTAYMELRSLTSEDSAVYYCSRETDYFFDYWGQGTTLTVSS VL: DIQMTQSPASLSASVGETVTITCGASENIYGALNWYQRKQGKSPQLLIYGATNLADGMSSRFSGSGSGRQYSLKISSLHPDDVATYYCQNVLSTPWTFGGGTKLEIKR | only partially inhibit | 219000 | 0.00234 | 168000 |  |
